Results from US12630600B2 (MEDIMMUNE LIMITED, priority 2022, dated 2026).
Starred links: 1 amine or outer side, 2 acyl side, 3 side chain; linkers in the order of their positions; H or OH if unused. Non-standard residues stand in square brackets, D forms with d. Residues, ends and D or L forms follow the SMILES beside them. Groups on a side chain read outwards from the residue. No end group written: not given here. *: point of attachment. C20 diacid = O=C(O)CCCCCCCCCCCCCCCCCCC(=O)*; C18 diacid = O=C(O)CCCCCCCCCCCCCCCCC(=O)*; γGlu = O=C(O)[C@H](CCC(=O)[*:2])N[*:1]; αMeF = C[C@](N)(Cc1ccccc1)C(=O)O; AEEA = NCCOCCOCC(=O)O; Aib = CC(C)(N)C(=O)O

B1: Peptide 525 (peptide)
peptide: H[Aib]QGTFTSDVSK[αMeF]LDSERAK([AEEA-AEEA-γGlu-C18 diacid])DFVQWLEA[Aib]G-OH
modifications: N-terminus assumed
SMILES: CC(C)C[C@H](NC(=O)[C@H](Cc1c[nH]c2ccccc12)NC(=O)[C@H](CCC(N)=O)NC(=O)[C@@H](NC(=O)[C@H](Cc1ccccc1)NC(=O)[C@H](CC(=O)O)NC(=O)[C@H](CCCCNC(=O)COCCOCCNC(=O)COCCOCCNC(=O)CC[C@H](NC(=O)CCCCCCCCCCCCCCCCC(=O)O)C(=O)O)NC(=O)[C@H](C)NC(=O)[C@H](CCCNC(=N)N)NC(=O)[C@H](CCC(=O)O)NC(=O)[C@H](CO)NC(=O)[C@H](CC(=O)O)NC(=O)[C@H](CC(C)C)NC(=O)[C@](C)(Cc1ccccc1)NC(=O)[C@H](CCCCN)NC(=O)[C@H](CO)NC(=O)[C@@H](NC(=O)[C@H](CC(=O)O)NC(=O)[C@H](CO)NC(=O)[C@@H](NC(=O)[C@H](Cc1ccccc1)NC(=O)[C@@H](NC(=O)CNC(=O)[C@H](CCC(N)=O)NC(=O)C(C)(C)NC(=O)[C@@H](N)Cc1c[nH]cn1)[C@@H](C)O)[C@@H](C)O)C(C)C)C(C)C)C(=O)N[C@@H](CCC(=O)O)C(=O)N[C@@H](C)C(=O)NC(C)(C)C(=O)NCC(=O)O
B2: Peptide 526 (peptide)
peptide: H[Aib]QGTFTSDVSK[αMeF]LDSERAK([AEEA-AEEA-γGlu-C18 diacid])DFVAWLEA[Aib]G-OH
modifications: N-terminus assumed
SMILES: CC(C)C[C@H](NC(=O)[C@H](Cc1c[nH]c2ccccc12)NC(=O)[C@H](C)NC(=O)[C@@H](NC(=O)[C@H](Cc1ccccc1)NC(=O)[C@H](CC(=O)O)NC(=O)[C@H](CCCCNC(=O)COCCOCCNC(=O)COCCOCCNC(=O)CC[C@H](NC(=O)CCCCCCCCCCCCCCCCC(=O)O)C(=O)O)NC(=O)[C@H](C)NC(=O)[C@H](CCCNC(=N)N)NC(=O)[C@H](CCC(=O)O)NC(=O)[C@H](CO)NC(=O)[C@H](CC(=O)O)NC(=O)[C@H](CC(C)C)NC(=O)[C@](C)(Cc1ccccc1)NC(=O)[C@H](CCCCN)NC(=O)[C@H](CO)NC(=O)[C@@H](NC(=O)[C@H](CC(=O)O)NC(=O)[C@H](CO)NC(=O)[C@@H](NC(=O)[C@H](Cc1ccccc1)NC(=O)[C@@H](NC(=O)CNC(=O)[C@H](CCC(N)=O)NC(=O)C(C)(C)NC(=O)[C@@H](N)Cc1c[nH]cn1)[C@@H](C)O)[C@@H](C)O)C(C)C)C(C)C)C(=O)N[C@@H](CCC(=O)O)C(=O)N[C@@H](C)C(=O)NC(C)(C)C(=O)NCC(=O)O
B3: Peptide 524 (peptide)
peptide: H[Aib]QGTFTSDVSE[αMeF]LDSERAK([AEEA-AEEA-γGlu-C18 diacid])DFVRWLEAGG-OH
modifications: N-terminus assumed
SMILES: CC(C)C[C@H](NC(=O)[C@H](Cc1c[nH]c2ccccc12)NC(=O)[C@H](CCCNC(=N)N)NC(=O)[C@@H](NC(=O)[C@H](Cc1ccccc1)NC(=O)[C@H](CC(=O)O)NC(=O)[C@H](CCCCNC(=O)COCCOCCNC(=O)COCCOCCNC(=O)CC[C@H](NC(=O)CCCCCCCCCCCCCCCCC(=O)O)C(=O)O)NC(=O)[C@H](C)NC(=O)[C@H](CCCNC(=N)N)NC(=O)[C@H](CCC(=O)O)NC(=O)[C@H](CO)NC(=O)[C@H](CC(=O)O)NC(=O)[C@H](CC(C)C)NC(=O)[C@](C)(Cc1ccccc1)NC(=O)[C@H](CCC(=O)O)NC(=O)[C@H](CO)NC(=O)[C@@H](NC(=O)[C@H](CC(=O)O)NC(=O)[C@H](CO)NC(=O)[C@@H](NC(=O)[C@H](Cc1ccccc1)NC(=O)[C@@H](NC(=O)CNC(=O)[C@H](CCC(N)=O)NC(=O)C(C)(C)NC(=O)[C@@H](N)Cc1c[nH]cn1)[C@@H](C)O)[C@@H](C)O)C(C)C)C(C)C)C(=O)N[C@@H](CCC(=O)O)C(=O)N[C@@H](C)C(=O)NCC(=O)NCC(=O)O

What follows are molecules tested against human GLP-1 receptor (human, UniProt P43220) (assay: cell-based or functional assay). Conditions: not given.
B1 was tested, and the “hGLP-1R EC50 (pM)” value was 177 pM. With B2 the “hGLP-1R EC50 (pM)” value was 194 pM. B3 was tested, and the “hGLP-1R EC50 (pM)” value was 366 pM.

Each molecule was assayed against human glucagon receptor (human, UniProt P47871) (assay: cell-based or functional assay). Conditions: not given.
B1 was tested, and the “hGluc-R EC50 (pM)” value was 2450 pM. In the case of B2, the “hGluc-R EC50 (pM)” value is reported as 690 pM. In the case of B3, the “hGluc-R EC50 (pM)” value is reported as > 24400 pM.

The molecules below were run against T1, human GLP-1 receptor (hGLP-1R) (Homo sapiens, UniProt P43220) (assay: cAMP production (HTRF) in CHO cells expressing human GLP-1 receptor). Conditions: Table 8; % GLP-1R activity relative to GLP-1 / % GlucR activity relative to glucagon.
T1 construct: expressed in transfected cells; host or cells: CHO
T1 sequence (P43220 24-463): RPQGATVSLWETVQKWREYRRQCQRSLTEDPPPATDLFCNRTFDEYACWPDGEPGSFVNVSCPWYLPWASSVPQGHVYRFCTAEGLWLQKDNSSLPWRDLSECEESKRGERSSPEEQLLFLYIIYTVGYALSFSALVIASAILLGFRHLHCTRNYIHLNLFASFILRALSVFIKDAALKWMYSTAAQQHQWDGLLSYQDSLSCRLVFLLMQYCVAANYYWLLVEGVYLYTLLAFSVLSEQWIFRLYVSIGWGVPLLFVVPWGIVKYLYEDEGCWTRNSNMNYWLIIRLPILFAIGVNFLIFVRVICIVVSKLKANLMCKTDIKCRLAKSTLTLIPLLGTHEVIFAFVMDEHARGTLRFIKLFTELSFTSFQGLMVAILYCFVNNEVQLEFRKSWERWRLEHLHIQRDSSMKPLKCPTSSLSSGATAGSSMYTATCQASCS
Type: cell-based
Protocol: Cells were re-suspended in assay buffer at a batch-dependent optimized concentration (typically hGLP-1R cells at 1×10^5 cells/mL, hGCGR cells at 2×10^5 cells/mL).
Cells were added to the assay plate using a multidrop dispenser and incubated at room temperature for 30 minutes before measuring the cAMP level using a cAMP dynamic 2 homogeneous time resolved Fluorescence (HTRF) kit (Cisbio Bioassays #62AM4PEJ) following the two-step protocol as per manufacturer's recommendations. In brief, anti-cAMP cryptate (donor fluorophore) and cAMP-d2 (acceptor fluorophore) were made up separately by diluting each 1 in 20 in conjugate and lysis buffer provided in the kit. Anti-cAMP cryptate was added to all wells of the assay plate, followed by cAMP-d2 added to all wells except non-specific binding (NSB) wells (to which conjugate and lysis buffer was added).
Data was transformed to % Delta F as described in the manufacturer's guidelines and analyzed by 4-parameter logistic fit to determine EC50 values.
With `CC[C@H](C)[C@H](NC(=O)[C@H](Cc1c[nH]c2ccccc12)NC(=O)[C@H](CCCCNC(=O)COCCOCCNC(=O)COCCOCCNC(=O)CC[C@H](NC(=O)CCCCCCCCCCCCCCCCCCC(=O)O)C(=O)O)NC(=O)[C@@H](NC(=O)[C@H](Cc1ccccc1)NC(=O)[C@H](CC(=O)O)NC(=O)[C@H](CCC(N)=O)NC(=O)[C@H](C)NC(=O)C(C)(C)NC(=O)[C@H](CCCNC(=N)N)NC(=O)[C@H](CO)NC(=O)[C@H](CC(=O)O)NC(=O)[C@H](CC(C)C)NC(=O)[C@](C)(Cc1ccccc1)NC(=O)[C@H](CCCCN)NC(=O)[C@H](CO)NC(=O)[C@@H](NC(=O)[C@H](CC(=O)O)NC(=O)[C@H](CO)NC(=O)[C@@H](NC(=O)[C@](C)(Cc1ccccc1)NC(=O)[C@H](CO)NC(=O)CNC(=O)[C@H](Cc1c[nH]cn1)NC(=O)C(C)(C)NC(=O)[C@@H](N)Cc1c[nH]cn1)[C@@H](C)O)C(C)C)C(C)C)C(=O)N[C@@H](C)C(=O)N[C@@H](CC(N)=O)C(=O)N[C@H](C(N)=O)[C@@H](C)O` [Peptide 368, H(Aib)HGS(αMePhe)TSDVSK(αMePhe)LDSR(Aib)AQDFVK(O2OC-O2OC-γE-C20diacid)24WIANT-amide] (H-H[Aib]HGS[αMeF]TSDVSK[αMeF]LDSR[Aib]AQDFVK([AEEA-AEEA-γGlu-C20 diacid])WIANT-NH2; N-terminus assumed) the “% Relative Potency Ratio” value was 3.1. In the case of `CC[C@H](C)[C@H](NC(=O)[C@H](Cc1c[nH]c2ccccc12)NC(=O)[C@H](CCCCNC(=O)CC[C@H](NC(=O)CCCCCCCCCCCCCCCCCCC(=O)O)C(=O)O)NC(=O)[C@@H](NC(=O)[C@H](Cc1ccccc1)NC(=O)[C@H](CC(=O)O)NC(=O)[C@H](CCC(N)=O)NC(=O)[C@H](C)NC(=O)[C@H](C)NC(=O)[C@H](CCC(N)=O)NC(=O)[C@H](CO)NC(=O)[C@H](CC(=O)O)NC(=O)[C@H](CC(C)C)NC(=O)[C@](C)(Cc1ccccc1)NC(=O)[C@H](CCCCN)NC(=O)[C@H](CO)NC(=O)[C@@H](NC(=O)[C@H](CC(=O)O)NC(=O)[C@H](CO)NC(=O)[C@@H](NC(=O)[C@](C)(Cc1ccccc1)NC(=O)[C@H](CO)NC(=O)CNC(=O)[C@H](Cc1c[nH]cn1)NC(=O)C(C)(C)NC(=O)[C@@H](N)Cc1c[nH]cn1)[C@@H](C)O)C(C)C)C(C)C)C(=O)N[C@@H](C)C(=O)N[C@@H](CC(N)=O)C(=O)N[C@H](C(N)=O)[C@@H](C)O` [Peptide 354], the “% Relative Potency Ratio” value is reported as 1.6. With `CC[C@H](C)[C@H](NC(=O)[C@H](Cc1c[nH]c2ccccc12)NC(=O)[C@H](CCCCNC(=O)COCCOCCNC(=O)COCCOCCNC(=O)CC[C@H](NC(=O)CC[C@H](NC(=O)CCCCCCCCCCCCCCCCC(=O)O)C(=O)O)C(=O)O)NC(=O)[C@@H](NC(=O)[C@H](Cc1ccccc1)NC(=O)[C@H](CC(=O)O)NC(=O)[C@H](CCC(N)=O)NC(=O)[C@H](C)NC(=O)[C@H](C)NC(=O)[C@H](CCCNC(=N)N)NC(=O)[C@H](CO)NC(=O)[C@H](CC(=O)O)NC(=O)[C@H](CC(C)C)NC(=O)[C@](C)(Cc1ccccc1)NC(=O)[C@H](CCCCN)NC(=O)[C@H](CO)NC(=O)[C@@H](NC(=O)[C@H](CC(=O)O)NC(=O)[C@H](CO)NC(=O)[C@@H](NC(=O)[C@](C)(Cc1ccccc1)NC(=O)[C@H](CO)NC(=O)CNC(=O)[C@H](Cc1c[nH]cn1)NC(=O)C(C)(C)NC(=O)[C@@H](N)Cc1c[nH]cn1)[C@@H](C)O)C(C)C)C(C)C)C(=O)N[C@@H](C)C(=O)N[C@@H](CC(N)=O)C(=O)N[C@H](C(=O)NCC(=O)NCC(N)=O)[C@@H](C)O` [Peptide 364] (H-H[Aib]HGS[αMeF]TSDVSK[αMeF]LDSRAAQDFVK([AEEA-AEEA-γGlu-γGlu-C18 diacid])WIANTGG-NH2; N-terminus assumed) the “% Relative Potency Ratio” value was 2.6. In the case of `CC[C@H](C)[C@H](NC(=O)C(C)(C)NC(=O)[C@H](CCCCNC(=O)COCCOCCNC(=O)COCCOCCNC(=O)CC[C@H](NC(=O)CC[C@H](NC(=O)CCCCCCCCCCCCCCCCC(=O)O)C(=O)O)C(=O)O)NC(=O)[C@@H](NC(=O)[C@](C)(Cc1ccccc1)NC(=O)[C@H](CC(=O)O)NC(=O)[C@H](CCC(N)=O)NC(=O)[C@H](C)NC(=O)[C@H](C)NC(=O)[C@H](CCCNC(=N)N)NC(=O)[C@H](CO)NC(=O)[C@H](CC(=O)O)NC(=O)[C@H](CC(C)C)NC(=O)[C@](C)(Cc1ccccc1)NC(=O)[C@H](CCCCN)NC(=O)[C@H](CO)NC(=O)[C@@H](NC(=O)[C@H](CC(=O)O)NC(=O)[C@H](CO)NC(=O)[C@@H](NC(=O)[C@](C)(Cc1ccccc1)NC(=O)[C@H](CO)NC(=O)CNC(=O)[C@H](Cc1c[nH]cn1)NC(=O)C(C)(C)NC(=O)[C@@H](N)Cc1c[nH]cn1)[C@@H](C)O)C(C)C)C(C)C)C(=O)N[C@@H](C)C(=O)N[C@@H](CC(N)=O)C(=O)N[C@H](C(=O)NCC(=O)NCC(N)=O)[C@@H](C)O` [Peptide 373] (H-H[Aib]HGS[αMeF]TSDVSK[αMeF]LDSRAAQD[αMeF]VK([AEEA-AEEA-γGlu-γGlu-C18 diacid])[Aib]IANTGG-NH2; N-terminus assumed), the “% Relative Potency Ratio” value is reported as 7.2.
